The results in this text go back to US20250084188A1 (published 2025).

Sequences and labels used below:
B1: D2 (IgG) (antibody, V domains shown)
VH: EVQLVESGGGLVQPGGSLRLSCAASGFTFSSYAMHWVRQAPGKGLEWVSAISSSSGTIYYADSVKGRFTISRDNSKNTLYLQMNSLRAEDTAVYYCAKDFGAVFDYWGQGTLVTVSS
VL: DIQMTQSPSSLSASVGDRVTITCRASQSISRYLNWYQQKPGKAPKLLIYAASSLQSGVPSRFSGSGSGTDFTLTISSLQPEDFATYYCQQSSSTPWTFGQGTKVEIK
B2: H1 (IgG) (antibody, V domains shown)
VH: EVQLVESGGGLVQPGGSLRLSCAASGFTFSSYAMSWVRQAPGKGLEWVSAIRSSGGTTYYADSVKGRFTISRDNSKNTLYLQMNSLRAEDTAVYYCAKSQSTVADYWGQGTLVTVSS
VL: DIQMTQSPSSLSASVGDRVTITCRASQSISNWLNWYQQKPGKAPKLLIYATSRLQSGVPSRFSGSGSGTDFTLTISSLQPEDFATYYCQQSYSFPLTFGQGTKVEIK
B3: A7 (IgG) (antibody, V domains shown)
VH: EVQLVESGGGLVQPGGSLRLSCAASGFTFSDYAMSWVRQAPGKGLEWVSGISSSGGTIYYADSVKGRFTISRDNSKNTLYLQMNSLRAEDTAVYYCAKAIGSWADIWGQGTLVTVSS
VL: DIQMTQSPSSLSASVGDRVTITCRASQDISNYLNWYQQKPGKAPKLLIYAASSLQSGVPSRFSGSGSGTDFTLTISSLQPEDFATYYCQQSYSFPYTFGQGTKVEIK
B4: 1E12 (IgG) (antibody, V domains shown)
VH: EVQLVESGGGLVQPGGSLRLSCAASGFTFSSYAMHWVRQAPGKGLEWVSAISSSGGTKYYADSVKGRFTISRDNSKNTLYLQMNSLRAEDTAVYYCAKGLQGGAGAFDIWGQGTLVTVSS
VL: DIQMTQSPSSLSASVGDRVTITCRASQSISNYLNWYQQKPGKAPKLLIYATSTLHSGVPSRFSGSGSGTDFTLTISSLQPEDFATYYCQQSYSFPWTFGQGTKVEIK
B5: F2 (IgG) (antibody, V domains shown)
VH: EVQLVESGGGLAQPGGSLRLSCAASGFTFSSYAMHWVRQAPGKGLEWVSSIKSSGGSKNYADSVKGRFTISRDNSKNTLYLQMNSLRAEDTAVYYCAKGYGASFDFWGQGTLVTVSS
VL: DIQMTQSPSSLSASVGDRVTITCRASQDISSWLNWYQQKPGKAPKLLIYAASRLQSGVPSRFSGSGSGTDFTLTISSLQPEDFATYYCQQAYSFPWTFGQGTKVEIK
B6: H7 (IgG) (antibody, V domains shown)
VH: EVQLVESGGGLVQPGGSLRLSCAASGFTFSSYGMHWVRQAPGKGLEWVSGISSSGGSKYYADSVKGRFTISRDNSKNTLYLQMNSLRAEDTAVYYCAKHGHQQMDFWGQGTLVTVSS
VL: DIQMTQSPSSLSASVGDRVTITCRASQSISSWLNWYQQKPGKAPKLLIYAASRLQSGVPSRFSGSGSGTDFTLTISSLQPEDFATYYCQQTYSFPWTFGQGTKVEIK
B7: C5 (IgG) (antibody, V domains shown)
VH: EVQLVESGGGLVQPGGSLRLSCAASGFTFSSYAMSWVRQAPGKGLEWVSSISSSSGTTHYADSVKGRFTISRDNSKNTLYLQMNSLRAEDTAVYYCAKGGAFDYWGQGTLVTVSS
VL: DIQMTQSPSSLSASVGDRVTITCRASQDISRWLNWYQQKPGKAPKLLIYAASTLQSGVPSRFSGSGSGTDFTLTISSLQPEDFATYYCQQSYSFPLTFGQGTKVEIK
B8: A5 (IgG) (antibody, V domains shown)
VH: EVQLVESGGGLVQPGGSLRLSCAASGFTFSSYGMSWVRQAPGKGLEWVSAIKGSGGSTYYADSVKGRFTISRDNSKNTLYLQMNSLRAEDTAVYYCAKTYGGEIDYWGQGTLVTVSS
VL: DIQMTQSPSSLSASVGDRVTITCRASQSISRWLNWYQQKPGKAPKLLIYATSTLQSGVPSRFSGSGSGTDFTLTISSLQPEDFATYYCQQSYSFPWTFGQGTKVEIK
B9: E7 (IgG) (antibody, V domains shown)
VH: EVQLVESGGGLVQPGGSLRLSCAASGFTFSSYAMHWVRQAPGKGLEWVSAISSSGGSIYYADSVKGRFTISRDNSKNTLYLQMNSLRAEDTAVYYCAKQGLSFDIWGQGTLVTVSS
VL: DIQMTQSPSSLSASVGDRVTITCRASQSISNWLNWYQQKPGKAPKLLIYATSRLQSGVPSRFSGSGSGTDFTLTISSLQPEDFATYYCQQSYSFPYTFGQGTKVEIK
B10: F4 (IgG) (antibody, V domains shown)
VH: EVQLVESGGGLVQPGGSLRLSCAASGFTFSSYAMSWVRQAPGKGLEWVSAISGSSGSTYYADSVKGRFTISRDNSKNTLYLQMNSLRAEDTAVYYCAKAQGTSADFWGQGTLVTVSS
VL: DIQMTQSPSSLSASVGDRVTITCRASQSISRWLNWYQQKPGKAPKLLIYAASRLQSGVPSRFSGSGSGTDFTLTISSLQPEDFATYYCQQSYSTPWTFGQGTKVEIK

Sequence of human chitinase-3-like protein 1 (hCHI3L1) (P36222 22-383): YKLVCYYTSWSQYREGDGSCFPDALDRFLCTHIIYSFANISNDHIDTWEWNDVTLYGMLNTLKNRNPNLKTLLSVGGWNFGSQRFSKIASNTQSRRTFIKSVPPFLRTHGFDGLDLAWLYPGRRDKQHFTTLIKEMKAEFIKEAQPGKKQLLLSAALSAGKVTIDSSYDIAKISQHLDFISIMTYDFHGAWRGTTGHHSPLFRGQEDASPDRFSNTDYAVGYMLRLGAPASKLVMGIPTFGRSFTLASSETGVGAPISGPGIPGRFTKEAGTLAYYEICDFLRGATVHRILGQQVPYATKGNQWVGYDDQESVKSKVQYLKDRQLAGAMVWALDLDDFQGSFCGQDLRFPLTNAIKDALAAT

The test has as its target human chitinase-3-like protein 1 (hCHI3L1) (human, UniProt P36222 22-383). The test is described as follows: ELISA. In general terms: ELISA stands for enzyme-linked immunosorbent assay.
In the case of B1, the EC50 was 0.577 nM.

B2 displayed an EC50 of 0.496 nM. For the molecule B3, the concentration giving a half-maximal response (EC50) was determined as 2.05 nM. With B4 the figure was 0.139 nM; with B5, 1.75 nM. B6 came in with an EC50 of 1.38 nM. In the case of B7, the response was half-maximal at 0.093 nM (EC50). As to B8, the midpoint of the response, the EC50, lay at 0.972 nM. B9 had an EC50 of 0.348 nM. Molecule B10 displayed an EC50 of 0.111 nM.

The term EC50 denotes the concentration that produces a half-maximal response.
